Measured values published in patent US20050214287A1 (published 2005).

Experiments:
CXCR4 (human) = CXCR4 (human) (UniProt P61073); assay: competition of 125I SDF-1α on CEM-NKr cells
CXCR4 = biological target: T1, CXCR4 (human, UniProt P61073 1-352); assay: displacement of 125I SDF-1α on CEM-NKr cells, DisplaceMax panel
T1 construct: whole, on cells; also called the SDF-1 receptor expressed on CEM-NKr; the hallmark SDF-1 receptor
T1 sequence (P61073 whole entry): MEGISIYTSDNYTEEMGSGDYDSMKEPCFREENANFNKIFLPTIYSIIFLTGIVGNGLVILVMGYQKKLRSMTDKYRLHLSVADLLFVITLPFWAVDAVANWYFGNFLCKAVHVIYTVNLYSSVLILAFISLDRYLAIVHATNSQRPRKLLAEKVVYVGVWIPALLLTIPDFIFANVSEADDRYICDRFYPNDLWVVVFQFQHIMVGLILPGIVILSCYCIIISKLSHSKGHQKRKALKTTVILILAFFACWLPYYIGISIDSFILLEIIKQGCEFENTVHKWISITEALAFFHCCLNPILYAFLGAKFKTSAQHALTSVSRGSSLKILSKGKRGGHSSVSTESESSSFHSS

Sequence of CXCR4 (human) (P61073 whole entry): as above

## SDF-1β (human) (from UniProt P48061 22-93) (ligand)
CXCR4 (human)
  IC50: 1.5 nM

B1: I-TAC (mouse) (ligand, UniProt Q9JHH5 22-100, looked up)
chain: FLMFKQGRCLCIGPGMKAVKMAEIEKASVIYPSNGCDKVEVIVTMKAHKRQRCLDPRSKQARLIMQAIEKKNFLRRQNM
notes: also called CXCL11
CXCR4
  binding result: no binding
